Test results taken from the domain aggregation screens of Martell et al. (2025).

Assay: soluble fraction after stress (log2 fold change); higher = more stays soluble; pooled small domains, quantitative proteomics
Conditions: stress: 50 degC
Outline: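 Custom libraries of small protein domains were pooled and measured in a high-throughput format, with quantitative proteomics as the read-out. Each library was stressed at 50°C. The value is the log2 fold change in the amount of each protein that stays soluble after stress, used as a measure of aggregation propensity; higher values mean more of the protein stays soluble.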

| Sequence | soluble fraction (log2) |
| --- | --- |
| HMDFSENEPVTVRVLSILKNNTIRIAVKGAVLQAQTALSQDIREGAFLLMRVHITDNTVVLTPY | 0.0533 |
| HMHFEWNELRKAINDFLAEQNMNEDKQLGPYFIQRDIVVPETGTEIDSKKFSEVFKHKVIMYLFDDAAKQ | -0.0513 |
| HMSHSVLIDISQLRIGMYIQLDVGWMHHPFPVSSFRVASLEQIEALRTLNLAQVRYFPAKSDPV | -3.6 |
| HMDVKPWERQEGESAKAFEAFTIYAGLGADRSLRAVAQQLGKSKTLMDRWSSTYSWVARAAEYDADLQRK | -0.575 |
| HMVNVTEAIDLENGTGKLSGTFNHEPKSAEEIIFLLKIDTNKWKLSQYWNKQMGDHWRVSALISQI | -1.91 |
| HMPSLILADEPTGNLDSRNSSEVIALLKNASKRYAQTIIMITHNRSIAQSADRVLQVSDGVLTDMG | 0.0494 |
| HMGDAVYSKVKDLVNTYNALAKQTGKSDLVSISQSRTWMVNDTKAHEVQWNKIGITIEDDQTLTI | 0.179 |
| HMVELRDGSLPLARGSVGDLVAEVQRKLGVAADGIFGPQTERAVRAFQARAGLASDGIVGPLTWSALFGA | -0.282 |
| HMFTGELESRVFELNYVDGLVASAALAGVLTDKGSATPIASRAGGENDMLLVVDRIASYSQIEKIITQLD | -0.0977 |
| HMLALKSGQVVVGTIIRRLDNTTAMLRIGNQLFETSFAKGLPKSNHILLRYDAMQGNRFIFTMVE | -0.191 |
| HMSAEDYLERIHELIESKGTAHVADIAQSLGVGKPSVTSMVQKLADEGYLNYEKYRSLTLTDSGRSIA | 0.105 |
| HMGVAAEDPDEAEKGAHSLKSSAANVGAEVVRGLAGEIESAASSGDVEAVRTILPGLEDAYSQAITDLET | 0.0162 |
| HMNEWSIDINLADEKQWTAKTKLSPAIIQNIIRYKNYLGGFTNLNQIKKVYGFTEANYYLLKPHLQLGK | -0.909 |
| HMLPFGHTRLEDGTIQEIPEQIALARKVAEMYKAGFPVMQISIKTEGLLTPRQIYGLMNHWGVKR | -1.24 |
| HMLGERIKQIRKQKKMTQTDVATGIITKSMLSMIENGKATPSLPALQAIARRLQVTVEELML | -0.512 |
| HMGSRRFGDSNHAAKLTEEQVVEIRELAAAGATTKFLAEMVGMHPNYVGLILRGLSWPEAGGPLRVA | 0.11 |
| HMSTKEFTIHAGEWSYRVSQKLENLGLVSDAKKFDQYLEDNGYSSKIKIGHYTISKDADFEEIAKEIT | 0.0383 |
| HMSEYITEGWLREKFGLGWGTEVHLPLDSRLTPAAHQLLEERKIVIKYIDAEGRVFNPDKSGEEAPVQ | 0.0587 |
| HMKLASIGDNIHTLRKNKGLTQSQLAGKLGVNVDTISNYEKGVSTPDFDIVEKLVNIFNVDAHSLLFK | 0.127 |
| HMKTGHLPVTVIIDGRIISDNLYKTGLSNNWLADQLRKNSIKSSEDVFFAYLNPERKFIYQLRSNS | -1.01 |
| HMTGIQLNDRERAILQHLSDGLTTKAIAERIFLREDTVKWYRKNLLARFEQPIVAALVKWAVLEGLV | 0.141 |
| HMRRVEDVRTALEHFAAARNTTPMAMTLDQRREAMRELAASGLLNLRRALSEVAQTLGVARSTVYTYLP | -0.84 |
| HMNKMIDAPDLTGLSLEDAKLVLEANKLQLGTVSHEPSDKPEDVVISQDPMEGQEIQQGGKVNLVVSYGD | -0.0696 |
| HMRVDLATEVHSVLRRMMSRPPTLQEIRADLDGEEPGRVHEALDALRAAFRGGRGPKNPYESLKRSLRRG | 0.0134 |
| HMTFGEMLQYTNRLKEILESNAPQSIKDRRLANLMTDLEQAYGIPILRDQEFEKENPFLMQLYRTIS | -2.06 |
| HMNEAVVVPDVKGLTLDEADEFFKNSKLRYNVVDSVFSKDVAPGAIVELVPVAGSKVKENRIVFVTINAQ | -0.17 |
| HMDEQLAWLYRKINAFSEIDKALILLYLEDKKYDEIAETLGISSVNARVKMNRIKKRLKEMINDR | -2.53 |
| HMDVLKVFSHNVRRYRTQLGLSQETVAFRTGLHRTYISAVERGKRSISLDNIQKIADALEVETYLLFI | -1.72 |
| HMGTAESIRLFLSSGLIKGVGEALAGRIVDTFGTDTFDIIENHPELLAGVKGISHRLAMSIYESFSQHIGV | -1.03 |
| HMTEEYAVLWRVARQTLKPEAFDVLWMKYREQLSIAEIAGIMNRSETSVKVMLHRARKNLGTALESS | -1.71 |
